B1: yeast-displayed wild-type sBCMA (human BCMA extracellular domain, Met1-Ala54) [human] / human APRIL (a proliferation-inducing ligand) [human] (parent complex)
chain 1: MLQMAGQCSQNEYFDSLLHACIPCQLRCSSNTPPLTCQRYCNASVTNSVKGTNA
chain 2: AVLTQKQKKQHSVLHLVPINATSKDDSDVTEVMWQPALRRGRGLQAQGYGVRIQDAGVYLLYSQVLFQDVTFTMGQVVSREGQGRQETLFRCIRSMPSHPDRAYNSCYSAGVFHLHQGDILSVIIPRARAKLNLSPHGTFLGFVKL

Variants of: B1
Experiment: flow cytometry binding curve of yeast-displayed sBCMA

screen value	Variant
325	chain 1 MLQMAGQCSQNEYFDGLLYACIPCQLRCSSNTPPLACQRYCNASVTNSVKGTNA [chain 1 S16G, chain 1 H19Y, chain 1 T36A]

Reference: PMC9428257 (2022)
